What all share (assay): flow cytometry, transfected 293T cells, 2 mM CaCl2
(Flow cytometry measures light scatter and fluorescence of single cells or particles in a stream.)

For experiment [1], the target named is huCDH19(44-772) with Flag tag (construct A, Hu EC1-5) (human, UniProt Q9H159 44-772).
Experiment [2] has as its target T1, ckCDH19(1-43)::FLAG::ckCDH19(44-776) (construct J, Ck EC1-5) (chicken).
T1 construct: the entry holds leader (1-43), FLAG and ckCDH19(44-776); leader left out; also called chicken Cadherin19
T1 chain: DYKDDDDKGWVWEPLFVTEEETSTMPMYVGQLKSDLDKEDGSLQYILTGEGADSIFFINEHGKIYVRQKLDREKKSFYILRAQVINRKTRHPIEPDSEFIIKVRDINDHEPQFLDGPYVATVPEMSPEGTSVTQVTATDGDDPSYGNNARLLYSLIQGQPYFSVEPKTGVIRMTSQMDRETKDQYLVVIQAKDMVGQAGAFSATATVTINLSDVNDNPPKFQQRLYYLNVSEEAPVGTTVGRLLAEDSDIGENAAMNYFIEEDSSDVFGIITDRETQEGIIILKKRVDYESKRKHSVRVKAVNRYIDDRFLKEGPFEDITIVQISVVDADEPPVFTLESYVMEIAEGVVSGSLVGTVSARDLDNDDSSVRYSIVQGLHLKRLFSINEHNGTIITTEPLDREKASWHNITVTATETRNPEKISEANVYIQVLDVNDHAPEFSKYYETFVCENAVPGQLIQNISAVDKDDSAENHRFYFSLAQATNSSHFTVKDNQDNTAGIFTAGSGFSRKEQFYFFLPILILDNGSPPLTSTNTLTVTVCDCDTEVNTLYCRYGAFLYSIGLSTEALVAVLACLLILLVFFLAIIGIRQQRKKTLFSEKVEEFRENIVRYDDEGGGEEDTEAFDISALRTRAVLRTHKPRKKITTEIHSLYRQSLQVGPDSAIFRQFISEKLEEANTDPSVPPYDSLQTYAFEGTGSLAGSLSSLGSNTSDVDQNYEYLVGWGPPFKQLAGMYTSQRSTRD

For experiment [3], the target named is T2, huCDH19(1-43)::FLAG::hu(44-141)::ckCDH19(142-776) (construct K, Hu EC1) (human/chicken chimera).
T2 construct: leader (1-43 of the entry) left out; also called huCDH19(44-141)::ckCDH19(142-776)

Experiment [4] addresses T3, rhCDH19(1-43)::FLAG::rhCDH19(44-772) (construct P, Rh EC1-5) (rhesus macaque, UniProt Q9H159 44-772 (human entry)).
T3 construct: leader (1-43 of the entry) left out; also called rhesus macaque Cadherin19
T3 chain: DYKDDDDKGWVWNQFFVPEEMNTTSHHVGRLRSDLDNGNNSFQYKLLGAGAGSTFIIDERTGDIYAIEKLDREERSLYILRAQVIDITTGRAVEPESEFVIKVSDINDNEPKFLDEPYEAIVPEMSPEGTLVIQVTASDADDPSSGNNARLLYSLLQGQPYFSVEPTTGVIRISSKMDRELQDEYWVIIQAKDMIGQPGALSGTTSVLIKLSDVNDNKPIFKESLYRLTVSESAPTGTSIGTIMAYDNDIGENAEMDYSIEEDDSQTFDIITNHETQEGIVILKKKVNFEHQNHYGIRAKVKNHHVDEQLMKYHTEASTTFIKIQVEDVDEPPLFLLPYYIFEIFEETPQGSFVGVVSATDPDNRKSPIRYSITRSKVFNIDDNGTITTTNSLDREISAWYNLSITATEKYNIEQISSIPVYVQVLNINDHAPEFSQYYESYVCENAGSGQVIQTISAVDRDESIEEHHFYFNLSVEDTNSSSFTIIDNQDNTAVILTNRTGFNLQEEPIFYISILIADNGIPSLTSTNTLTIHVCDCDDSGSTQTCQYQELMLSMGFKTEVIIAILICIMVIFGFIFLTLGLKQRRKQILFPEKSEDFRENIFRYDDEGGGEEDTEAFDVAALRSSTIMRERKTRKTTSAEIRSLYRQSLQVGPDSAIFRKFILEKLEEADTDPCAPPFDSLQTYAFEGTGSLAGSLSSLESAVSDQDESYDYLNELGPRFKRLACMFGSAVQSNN

In experiment [5] the target is T4, raCDH19(1-43)::FLAG::raCDH19(44-770) (construct W, Ra EC1-5) (rat).
T4 construct: leader (1-43 of the entry) left out; also called rat Cadherin19
T4 chain: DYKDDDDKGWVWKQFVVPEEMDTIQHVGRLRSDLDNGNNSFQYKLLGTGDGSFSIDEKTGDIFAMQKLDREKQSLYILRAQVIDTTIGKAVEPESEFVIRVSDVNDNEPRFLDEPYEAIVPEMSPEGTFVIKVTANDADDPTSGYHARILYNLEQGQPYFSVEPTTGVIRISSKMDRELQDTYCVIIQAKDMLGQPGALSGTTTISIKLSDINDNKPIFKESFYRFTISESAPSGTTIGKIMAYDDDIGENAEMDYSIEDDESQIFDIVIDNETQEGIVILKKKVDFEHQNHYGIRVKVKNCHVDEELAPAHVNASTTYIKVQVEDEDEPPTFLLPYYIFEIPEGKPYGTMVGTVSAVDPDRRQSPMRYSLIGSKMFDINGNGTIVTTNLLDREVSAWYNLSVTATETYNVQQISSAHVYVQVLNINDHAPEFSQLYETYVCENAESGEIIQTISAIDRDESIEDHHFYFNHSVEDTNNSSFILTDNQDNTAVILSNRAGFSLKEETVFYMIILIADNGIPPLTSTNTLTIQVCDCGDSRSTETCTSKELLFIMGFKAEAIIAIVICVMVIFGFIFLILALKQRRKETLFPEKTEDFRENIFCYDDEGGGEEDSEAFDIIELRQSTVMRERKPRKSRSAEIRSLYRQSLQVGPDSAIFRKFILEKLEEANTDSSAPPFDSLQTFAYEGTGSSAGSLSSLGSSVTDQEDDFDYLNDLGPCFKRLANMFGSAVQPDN

B1: hu anti-<huCDH19> 4A9 (Ab ID 13589) (antibody, human IgG1, lambda, V domains shown)
VH: QVQLQESGPGLVKPSETLSLTCTVSGGSISGYYWSWIRQPPGKGLEWFAYFSYSGSTNYNPSLKSRVTLSVDTSKNQFSLKLSSVTAADTAVYYCARNWAFHFDFWGQGTLVTVSS
VL: QSVLTQPPSVSGAPGQRVTISCTGSSSNIGTGYAVHWYQQFPGTAPKLLIYGNNNRPSGVPDRFSGSKSGTSASLAITGLQAEDEADYYCQSYDSRLSGWVFGGGTKLTVLG
notes: huIgG1z / huLLC-C1; Bin 1
Turning to B1, the binding result is given as “binds” in experiment [1]; “no binding (tested: 5 ug/ml)” in experiment [2]; “binds” in experiment [3]; “binds” in experiment [4]; “no binding (tested: 5 ug/ml)” in experiment [5].

B2: anti-CDH19 antibody 4A2 (Ab ID 13592) (antibody, human IgG1, kappa, V domains shown)
VH: QVQLQESGPGLVKPSQTLSLTCTVSGGSISSSGYYWSWIRQHPGKGLEWIGYIYYTGSAYYNPSLKSRVTISVDTSKNQFSLKLSSVTAADTAVYYCARDGSSGWYFQYWGQGTLVTVSS
VL: EIVLTQSPGTLSLSPGERATLSCRASRNISSSYLAWYQQKPGQAPRLLIYGPSSRATGIPDRFSGSGSGTDFTLTISRLEPEDFTVYYCQQYGSSFTFGPGTKVDIKR
notes: Bin 4
For the molecule B2, the binding result in experiment [2] is reported as “no binding (tested: 5 ug/ml)”; in experiment [3], “no binding (tested: 5 ug/ml)”; in experiment [4], “binds”.

B3: hu anti-<huCDH19> 4B10 (Ab ID 13590) (antibody, V domains shown)
VH: QVQLVESGGGVVQPGRSLRLSCAASGFTFSSYDMHWVRQAPGKGLEWVAVISYDGTNEYYADSVKGRFTISRDTSKNTLYLQMNSLRAEDTAVYYCARERYFDWSFDYWGQGTLVSVSS
VL: EIVLTQSPGTLSLSPGERATLSCRASQSVSNTYLAWYHQRPGQAPRLLIYGASSRATGIPDRFSGSGSGTDFALTISSLEPEDFAVYYCQQYSNSWTFGQGTKVEIKR
notes: huIgG1z / huKLC; Bin 4
In the case of B3, the binding result in experiment [1] is on record as “binds”; in experiment [2], “no binding (tested: 5 ug/ml)”; in experiment [3], “no binding (tested: 5 ug/ml)”; in experiment [4], “binds”; in experiment [5], “binds”.

B4: hu anti-<huCDH19> 26D1.1 (Ab ID 13882) (antibody, human IgG1, lambda, V domains shown)
VH: QVQLVQSGAEVKKPGASVKVSCKASRYTFTSYYMSWVRQAPGQGLEWMGIIHPSGGDTTYAQKFQGRVTMTGDTSTSTVYMELSSLRSEDTAVYYCARGGIKLWLHFDYWGQGTLVTVSS
VL: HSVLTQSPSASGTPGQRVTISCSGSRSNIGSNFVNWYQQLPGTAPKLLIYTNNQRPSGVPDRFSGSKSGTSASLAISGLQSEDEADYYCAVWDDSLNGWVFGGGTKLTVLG
notes: huIgG1z / huLLC-C2; Bin 2
In the case of B4, the binding result in experiment [1] is “binds”; in experiment [2] it was “no binding (tested: 5 ug/ml)”; in experiment [3], “binds”; in experiment [4], “binds”; in experiment [5], “no binding (tested: 5 ug/ml)”.

B5: hu anti-<huCDH19> 25F8.1 (1-469)(F90Y) VH::huIgG1z + 25F8.1 (1-235)(K45Q,S102A,D111E) VL::huLLC-C2 (Ab ID 14096) (antibody, V domains shown)
VH: QVQLVQSGAEVKKPGASVKVSCKASGYTFTSYYIHWVRQAPGQGLEWMGIINPSGGSTRYAQKFQGRVTMTRDTSTSTVYMELSSLRSEDTAVYYCARGGIQLWLHFDYWGQGTLVTVSS
VL: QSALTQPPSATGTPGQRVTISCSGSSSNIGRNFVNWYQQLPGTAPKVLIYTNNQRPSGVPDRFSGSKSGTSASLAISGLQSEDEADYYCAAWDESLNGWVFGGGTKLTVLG
notes: Engineered variant of 25F8; the entries already carry the changes; Bin 2
For the molecule B5, the binding result is on record as “binds” in experiment [1]; “no binding (tested: 5 ug/ml)” in experiment [2]; “binds” in experiment [3]; “binds” in experiment [4]; “no binding (tested: 5 ug/ml)” in experiment [5].

B6: anti-CDH19 antibody 2G6 (Ab ID 13588) (antibody, human IgG1, lambda, V domains shown)
VH: QVQLVESGGGVVQPGRSLRLSCAASGFTFSSYGMHWVRQAPGKGLEWVAFIWYDGSNKYYADSVKDRFTISRDNSKNTLYLQMKSLRAEDTAVYYCARRAGIIGTIGYYYGMDVWGQGTTVTVSS
VL: SYELTQPPSVSVSPGQTASITCSGDRLGEKYTCWYQQRPGQSPLLVIYQDTKRPSGIPERFSGSNSGNTATLTISGTQAMDEADYYCQAWDSSTVVFGGGTKLTVLG
notes: Bin 4
As to B6, the binding result in experiment [1] was “binds”; in experiment [2], “no binding (tested: 5 ug/ml)”; in experiment [3], “no binding (tested: 5 ug/ml)”; in experiment [4], “binds”; in experiment [5], “binds”.

B7: hu anti-<huCDH19> 23A10.3 (1-474)(L92Q) VH::huIgG1z + 23A10.3 (1-231)(C42S) VL::huLLC-C2 (Ab ID 14077) (antibody, V domains shown)
VH: QVQLVESGGGVVQPGRSLRLSCAASGFTFSRYGIHWVRQAPGKGLEWVAVIWYDGSNKYYADSVKGRFTISRDNSKNTLYLQMNSLRAEDSAVYYCARRAGIPGTTGYYYGMDVWGQGTTVTVSS
VL: SYELTQPPSVSVSPGQTASITCSGDRLGEKYVSWYQQKPGQSPILVIYQDNKWPSGIPERFSGSNSGNTATLTISGTQAMDEADYYCQAWDSSTVVFGGGTKLTVLG
notes: Engineered variant of 23A10; the entries already carry the changes; Bin 4
Regarding B7, the binding result in experiment [1] is listed as “binds”; in experiment [2], “no binding (tested: 5 ug/ml)”; in experiment [3] it was “no binding (tested: 5 ug/ml)”; in experiment [4], “binds”; in experiment [5], “binds”.
